In one data set the target is T1, insulin receptors on LPM (Rattus norvegicus, UniProt P15127).
T1 construct: isolate plasma membrane fractions from fresh rat livers; from tissue; host or cells: rat liver plasma membrane (microsomal light fraction)
The experiment in a line: Equilibrium binding assay: inhibition of [125I]insulin binding to rat liver plasma membrane (LPM). The settings on record: absence of THBPs.

Data set [1] relates to normal human serum (TBG, albumin, prealbumin). As to the kind of experiment: FPLC binding to THBPs after overnight incubation, IRI by RIA: normal human serum. It is filed as in vitro ADME. The settings on record: normal human serum undiluted. The method, then:
To ascertain the binding of the insulin or the analogue to the thyroid hormone binding proteins (THBPs), they were incubated overnight at 4° C. The bound and unbound species were separated by molecular weight with FPLC.
Solutions (0.5 ml) of THBPs were prepared in FPLC buffer as follows and then vortexed:
It was vortexed and incubated at 4° C. for ≈16 hours or overnight. Before FPLC, it was vortexed again, and filtered through a syringe filter of pore size 0.2 μm (Acrodisc® LC13 PVDF from Gelman, UK) to remove bacteria and serum precipitates.
The fraction tubes (LP3 tubes) were coated with 50 μl 3% (w/v) HSA to prevent the analogues from adsorbing to the tubes' inner surfaces. The fraction size was programmed as 0.50 ml. Immunoreactive insulin in each fraction was assayed with radioimmunoassay on the same day.
IRI content in each fraction was assayed by RIA.
FIGS. 3a-d show the elution profiles of the conjugates after overnight incubation with 5% human serum albumin (HSA). […] The calculated % bound and % free values are included in Table 3. Appearances of the THBPS, as detected by UV absorbance on the original chromatogram (which was not sensitive enough to detect the analogues) are also indicated as arrows on the elution profiles. The shadowed box represents the bound fractions; the clear box represents free fractions.

Data set [2] concerns the target T2, TBG (thyroxine binding globulin) (Homo sapiens, UniProt P05543).
T2 sequence (P05543 21-415): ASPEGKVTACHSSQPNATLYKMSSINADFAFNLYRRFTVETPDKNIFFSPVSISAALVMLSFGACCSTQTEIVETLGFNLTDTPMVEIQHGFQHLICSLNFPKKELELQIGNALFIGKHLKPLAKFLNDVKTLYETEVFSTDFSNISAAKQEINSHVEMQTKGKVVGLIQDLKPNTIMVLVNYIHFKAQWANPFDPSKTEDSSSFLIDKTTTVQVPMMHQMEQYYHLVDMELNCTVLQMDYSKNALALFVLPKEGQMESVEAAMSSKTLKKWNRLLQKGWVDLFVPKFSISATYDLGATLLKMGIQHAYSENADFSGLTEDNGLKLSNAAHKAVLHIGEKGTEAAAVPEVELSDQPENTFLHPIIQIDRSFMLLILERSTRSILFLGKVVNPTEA
As to the kind of experiment: FPLC binding to THBPs after overnight incubation, IRI by RIA: TBG. The following applies: TBG 0.238 μM.

Data set [3] concerns primary antibody W12 (polyclonal anti-insulin antibody). The experiment in a line: Double-antibody radioimmunoassay: inhibition of [125I]insulin binding to primary antibody W12. The following applies: standard solutions, RIA. Details: species or system guinea-pig.
Experimental: The assay was calibrated using insulin standards. […] A double dispenser (Dilutrend, Boehringer Corporation London Ltd) was used to add the appropriate volume of buffer and standard or FPLC fractions into the labelled LP3 tubes. The total volume of each tube was 500 μl. In addition, three tubes of NSB (non-specific binding), containing the standardized HSA concentration, were prepared with, Barbitone/HSA(0.2% w/v) and FPLC/Barbitone/HSA buffers. […] The radioactivity in 100 μl of the resulting tracer solution was counted in the γ-counter, and the counts per minute (cpm) should lie between 3000-5000 cpm. ANSA (2 mg/ml) was dissolved in the solution, and it functioned to displace the T4 moieties on the analogues from the THBPs, since the THBP could be shielding the insulin moiety that was to be assayed. Finally, 100 μl of this solution was added to every tube. The primary antibody, [MUT], is a polyclonal, guinea-pig anti-insulin antibody. […] It was diluted to 1:45,000 in Barbitone/HSA(0.2% w/v) buffer, and 100 μl was added to every tube, except the TC and NSB tubes. […] Finally, the samples, together with the TC and NSB tubes, were counted in the γ-counter using a programme for […] ). Double antibody RIA was used to quantify the immunoreactive insulin (IRI) in the FPLC fractions.
The target in data set [4] is T3, plasma protein thyroxine binding globulin (TBG) (Homo sapiens, UniProt P05543).
T3 sequence (P05543 21-415): T2 sequence (P05543 21-415)
The experiment in a line: IAsys optical biosensor kinetic binding to immobilized TBG. The following applies: control, 500 μg/ml.
Experimental: The optical bio-sensor IAsys makes it possible to record biomolecular interactions in real time and thus kinetical studies.
The surface of the cuvette is covered with a carboxymethylated dextran matrix (CMD), to which the plasma protein TBG is immobilized.
Immobilization of TBG to the carboxymethylated matrix is detected via the change of the resonance angle.
For the kinetical studies the Thyroid-Insulin conjugates were injected into the microcuvette in dilution series of 200, 300, 400 and 500 μg/ml in HBS/Tween-buffer at 25° C. To test for reproducibility, all measurements were repeated 3 times.
Determination of “on-rate” constants kon at various ligand concentrations cL allow kon to be plotted against cL according to equation (4). This gives the association rate constant kA from the slope and the dissociation rate constant kD at C2=O. It has, however, to be taken into account that the error of kD becomes too large when kD<0,01 s^−1 (IAsys, METHODS GUIDE).
The association and dissociation curves of the 3 Thyroid-Insulin-conjugates indicated in Table 3 were analyzed with the program Fast-fit.
Evaluation of dissociation was also via single phase curve-fitting, for the same reasons as above.

“And” between values parts separate entries of the source, which are not always exact repeats. Equal values may be shown once.

T1 sequence (P15127 27-759 limits assumed): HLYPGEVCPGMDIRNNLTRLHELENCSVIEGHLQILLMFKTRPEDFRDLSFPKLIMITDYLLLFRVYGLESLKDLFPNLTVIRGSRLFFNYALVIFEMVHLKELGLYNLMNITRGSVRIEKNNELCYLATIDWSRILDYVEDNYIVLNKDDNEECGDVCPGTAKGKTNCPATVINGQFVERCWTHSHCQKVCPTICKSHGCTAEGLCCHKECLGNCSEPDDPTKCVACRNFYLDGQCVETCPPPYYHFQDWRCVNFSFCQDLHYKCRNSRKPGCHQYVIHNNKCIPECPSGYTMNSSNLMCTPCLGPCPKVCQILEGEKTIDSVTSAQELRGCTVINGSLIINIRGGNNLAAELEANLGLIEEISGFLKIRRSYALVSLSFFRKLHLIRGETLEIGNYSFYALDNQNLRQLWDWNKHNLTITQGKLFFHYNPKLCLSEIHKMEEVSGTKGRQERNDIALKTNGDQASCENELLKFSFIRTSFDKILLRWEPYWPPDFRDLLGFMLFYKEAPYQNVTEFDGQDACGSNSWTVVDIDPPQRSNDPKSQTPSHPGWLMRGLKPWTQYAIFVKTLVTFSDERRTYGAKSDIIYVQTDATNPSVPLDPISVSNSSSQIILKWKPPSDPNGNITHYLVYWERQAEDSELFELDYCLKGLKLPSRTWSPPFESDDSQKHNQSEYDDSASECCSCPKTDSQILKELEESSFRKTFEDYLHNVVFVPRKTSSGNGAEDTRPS
Text for insulin receptors on LPM: Rat liver plasma membrane (LPM) was isolated to be used in equilibrium binding assays as the source of insulin receptors.
This equilibrium binding assay determines the analogues affinity to the insulin receptors on the LPM, both in the presence and absence of the THBPs. […] The amount of bound tracer was counted in the γ counter after separating the bound and free species by centrifugation.
For the binding assays performed in the presence THBP, shifts in the binding curves and the changes in ED50s and RPE are described relative to binging of the same analogue in the absence of THBP.

Take “H-Ins: unmodified (native, human) insulin used as control and reference”: the “Mean ED50 ± SEM” value with insulin receptors on LPM is 8.49 ± 0.69 nM. Besides, the “Mean % Free (fractions 15.5-25 ml)” value in data set [1] is listed as 98.39%; in data set [2], 90.15%. Further, the “Mean % Bound (fractions 5.5-15 ml)” value in data set [1] (n = 3) is 1.61 ± 0.47%; in data set [2] (n = 3) it was 9.85% and 9.85 ± 2.14%. The “ED50, inhibition of [125I]insulin binding to W12” value in data set [3] is 1.065 nM. For the same substance, the “association to immobilized TBG” value in data set [4] is recorded as “association cannot be observed”.

These data come from patent US20030186847A1, “Insulin derivatives and synthesis thereof” (priority 2000, published 2003).
